B1: SNAP-Fbs1 fusion protein (wild-type human Fbs1 sugar-binding domain, residues 92-296) [human] / fetuin [modified: sialylated complex N-linked glycans; sialylated complex N-linked glycans] [not stated] (parent)
chain 1: CQQEGLVPEGGVEEERDHWQQFYFLSKRRRNLLRNPCGEEDLEGWCDVEHGGDGWRVEELPGDSGVEFTHDESVKKYFASSFEWCRKAQVIDLQAEGYWEELLDTTQPAIVVKDWYSGRSDAGCLYELTVKLLSEHENVLAEFSSGQVAVPQDSDGGGWMEISHTFTDYGPGVRFVRFEHGGQDSVYWKGWFGARVTNSSVWVEP
chain 2: IPLDPVAGYKEPACDDPDTEQAALAAVDYINKHLPRGYKHTLNQIDSVKVWPRRPTGEVYDIEIDTLETTCHVLDPTPLANCSVRQQTQHAVEGDCDIHVLKQDGQFSVLFTKCDSSPDSAEDVRKLCPDCPLLAPLNDSRVVHAVEVALATFNAESNGSYLQLVEISRAQFVPLPVSVSVEFAVAATDCIAKEVVDPTKCNLLAEKQYGFCKGSVIQKALGGEDVRVTCTLFQTQPVIPQPQPDGAEAEAPSAVPDAAGPTPSAAGPPVASVVVGPSVVAVPLPLHRAHYDLRHTFSGVASVESSSGEAFHVGKTPIVGQPSIPGGPVRLCPGRIRYFKI

Variants of: B1
Assay: fetuin bead pulldown, SDS-PAGE quantified by ImageJ
Details: with fetuin [modified: sialylated complex N-linked glycans, E. coli cell lysate containing the same amount of wt Fbs1 or variant Fbs1 fusion protein, parent: 1, read off a plot

Variant | ratio to parent [fold change]
chain 1 D63P S64P G65S | 2.5
chain 1 D63P S64P | 1.7

— article PMC5457524, “An engineered high affinity Fbs1 carbohydrate binding protein for selective capture of N-glycans and N-glycopeptides” (Nature Communications, 2017)
